Laboratory results reported in patent US20190201479A1.

Target: IdsE of strain BB2000 with amino acids 147-169 (variable region) replaced by the equivalent sequence of IdsE from strain HI4320 (Proteus mirabilis strain BB2000; Proteus mirabilis strain HI4320)
Assay: cell-based or functional assay

Substance “IdsD from Proteus mirabilis strain BB2000 (variable region from BB2000)” has a fold reduction in colony expansion of the 1:1 coswarm (donor CCS06 with CCS05-derived recipient producing DVR-BB and EVR-HI) against the monoculture swarm of the recipient of 3.12 fold and a fold reduction in colony expansion of the 1:1 coswarm (donor CCS06 with CCS05-derived recipient producing DVR-HI and EVR-HI) against the monoculture swarm of the recipient of 3.35 fold.
